Molecular target: PCBP2 (poly(C)-binding protein 2, hnRNP E2) (UniProt Q15366)
Test: EMSA
Conditions: EMSA: 25 mM NaH2PO4 pH 8.0, 50 mM NaCl, 25 mM KCl, 2.5 mM MgCl2, 10 mM imidazole, 0.5 mM DTT, 0.5 mM PMSF, 7% glycerol, 0.5 U/uL RNasin, 75 ng/uL BSA …

Chain of PCBP2 (poly(C)-binding protein 2, hnRNP E2) (Q15366 whole entry): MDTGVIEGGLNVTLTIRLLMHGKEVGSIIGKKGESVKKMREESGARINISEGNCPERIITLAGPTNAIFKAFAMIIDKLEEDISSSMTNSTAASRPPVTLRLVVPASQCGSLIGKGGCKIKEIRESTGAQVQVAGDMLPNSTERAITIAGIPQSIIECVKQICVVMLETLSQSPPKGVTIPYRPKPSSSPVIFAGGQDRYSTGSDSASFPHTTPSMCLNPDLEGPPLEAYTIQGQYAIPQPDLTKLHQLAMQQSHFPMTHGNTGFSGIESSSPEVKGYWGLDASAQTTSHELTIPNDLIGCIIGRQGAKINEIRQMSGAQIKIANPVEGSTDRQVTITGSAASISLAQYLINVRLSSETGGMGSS

Question: For “GGUCAUGGCGACUGUCCAGCUUUGUGCCAGGAGCCUCGCAGGGGUUGAUGGGAUUGGGGUUUUCCCCUCCCAUGUGCUCAAGACUGGCGCUAAAAGUUUUGAGCUUCUCAAAAGUCUAGAGCCACCGUCCAGGGAGCAGGUAGCUGCUGGGCUCCGGGGACACUUUGCGUUCGGGCUGGGAGCGUGCUUUCCACGACGGUGACACGCUUCCCUGGAUUGGCAGCCAGACUGCCUUCCGGGUCACUGCCAUGGAGGAGCCGCAGUCAGAUCCUAGCGUCGAGCCCCCUCUGAGUCAGGAAACAUUUUCAGACCUAUGGAAACUACUUCCUGAAAACAACGUUCUGUCCCCCUUGCCGUCCCAAGCAAUG [P0-Δ40p53 RNA]”, which Kd is on record?
Answer: 63 nM
